# Laboratory results as given in patent US11332512B2, “Peptides and combination of peptides for use in immunotherapy against various tumors” (Immatics Biotechnologies GmbH, priority 2015, dated 2022).
# Molecular target: HLA-A*02:01 (Homo sapiens, UniProt P04439, D140Y/D185E/D98H/E176V/E277Q/G131W/G231S/I119V/I121R/I166T/I218V/L300P/L318F/N151K/N90K/P208A/P217A/Q86G/Q94H/R138H/R169H/T345S)
# Experiment: MHC binding assay: UV-ligand exchange with beta2m ELISA (peptide exchange yield)
# Details: binding to HLA-A*02:01, β2m ELISA
# Source text: Candidate peptides for T cell based therapies according to the present invention were further tested for their MHC binding capacity (affinity). The individual peptide-MHC complexes were produced by UV-ligand exchange, where a UV-sensitive peptide is cleaved upon UV-irradiation, and exchanged with the peptide of interest as analyzed. Only peptide candidates that can effectively bind and stabilize the peptide-receptive MHC molecules prevent dissociation of the MHC complexes. To determine the yield of the exchange reaction, an ELISA was performed based on the detection of the light chain (β2m) of stabilized MHC complexes. The assay was performed as generally described in Rodenko et al. (Rodenko et al., 2006).
# 96 well MAXISorp plates (NUNC) were coated over night with 2 ug/ml streptavidin in PBS at room temperature, washed 4× and blocked for 1 h at 37° C. in 2% BSA containing blocking buffer. Refolded HLA-A*02:01/MLA-001 monomers served as standards, covering the range of 15-500 ng/ml. Peptide-MHC monomers of the UV-exchange reaction were diluted 100 fold in blocking buffer. Samples were incubated for 1 h at 37° C., washed four times, incubated with 2 ug/ml HRP conjugated anti-β2m for 1 h at 37° C., washed again and detected with TMB solution that is stopped with […]. Absorption was measured at 450 nm. Candidate peptides that show a high exchange yield (preferably higher than 50%, most preferred higher than 75%) are generally preferred for a generation and production of antibodies or fragments thereof, and/or T cell receptors or fragments thereof, as they show sufficient avidity to the MHC molecules and prevent dissociation of the MHC complexes.
row,"Peptide exchange (MHC class I binding score, peptide exchange yield)",Substance
1,+++ (= ≥50% = +++),148 (YLILSSHQL; listed as Homo sapiens) [compound 148]
2,+++ (= ≥50% = +++),150 (VLLDMVHSL; listed as Homo sapiens) [compound 150]
3,+++ (= ≥50% = +++),153 (KLVELEHTL; listed as Homo sapiens) [compound 153]
4,+++ (= ≥50% = +++),158 (YLDPLWHQL; listed as Homo sapiens) [compound 158]
5,+++ (= ≥50% = +++),159 (QLGPVPVTI; listed as Homo sapiens) [compound 159]
6,+++ (= ≥50% = +++),160 (TLQEWLTEV; listed as Homo sapiens) [compound 160]
7,+++ (= ≥50% = +++),162 (GLLGNLLTSL; listed as Homo sapiens) [compound 162]
8,+++ (= ≥50% = +++),164 (MLIIRVPSV; listed as Homo sapiens) [compound 164]
9,+++ (= ≥50% = +++),165 (SLLDYEVSI; listed as Homo sapiens) [compound 165]
10,+++ (= ≥50% = +++),166 (LLGDSSFFL; listed as Homo sapiens) [compound 166]
11,+++ (= ≥50% = +++),167 (LVVDEGSLVSV; listed as Homo sapiens) [compound 167]
12,+++ (= ≥50% = +++),168 (VIFEGEPMYL; listed as Homo sapiens) [compound 168]
13,+++ (= ≥50% = +++),169 (ALADLSVAV; listed as Homo sapiens) [compound 169]
14,+++ (= ≥50% = +++),173 (RLIDIYKNV; listed as Homo sapiens) [compound 173]
15,+++ (= ≥50% = +++),175 (SLLDLVQSL; listed as Homo sapiens) [compound 175]
16,+++ (= ≥50% = +++),177 (ALINVLNAL; listed as Homo sapiens) [compound 177]
17,+++ (= ≥50% = +++),179 (TLGEIIKGV; listed as Homo sapiens) [compound 179]
18,+++ (= ≥50% = +++),180 (RLYEEEIRI; listed as Homo sapiens) [compound 180]
19,+++ (= ≥50% = +++),181 (LLWAPTAQA; listed as Homo sapiens) [compound 181]
20,+++ (= ≥50% = +++),182 (GLQDGFQITV; listed as Homo sapiens) [compound 182]
21,+++ (= ≥50% = +++),183 (ALSYILPYL; listed as Homo sapiens) [compound 183]

row,"Peptide exchange (MHC class I binding score, peptide exchange yield)",Substance
1,+++ (= ≥50% = +++),190 (SLSTELFKV; listed as Homo sapiens) [compound 190]
2,+++ (= ≥50% = +++),191 (AAIEIFEKV; listed as Homo sapiens) [compound 191]
3,+++ (= ≥50% = +++),193 (ALFHMNILL; listed as Homo sapiens) [compound 193]
4,+++ (= ≥50% = +++),195 (VIIQNLPAL; listed as Homo sapiens) [compound 195]
5,+++ (= ≥50% = +++),200 (IMPTFDLTKV; listed as Homo sapiens) [compound 200]
6,+++ (= ≥50% = +++),204 (SEWGSPHAAVP; listed as Homo sapiens) [compound 204]
7,+++ (= ≥50% = +++),207 (KLFETVEEL; listed as Homo sapiens) [compound 207]
8,+++ (= ≥50% = +++),210 (GLAGDNIYL; listed as Homo sapiens) [compound 210]
9,+++ (= ≥50% = +++),211 (LLTTVLINA; listed as Homo sapiens) [compound 211]
10,+++ (= ≥50% = +++),213 (ILAVDGVLSV; listed as Homo sapiens) [compound 213]
11,+++ (= ≥50% = +++),214 (ALFETLIQL; listed as Homo sapiens) [compound 214]
12,+++ (= ≥50% = +++),217 (LLWPSSVPA; listed as Homo sapiens) [compound 217]
13,+++ (= ≥50% = +++),218 (SLTGANITV; listed as Homo sapiens) [compound 218]
14,+++ (= ≥50% = +++),220 (ALSELERVL; listed as Homo sapiens) [compound 220]
15,+++ (= ≥50% = +++),223 (ALHPVQFYL; listed as Homo sapiens) [compound 223]
16,+++ (= ≥50% = +++),224 (LLFDWSGTGRADA; listed as Homo sapiens) [compound 224]
17,+++ (= ≥50% = +++),225 (FLPQPVPLSV; listed as Homo sapiens) [compound 225]
18,+++ (= ≥50% = +++),226 (SLAGNLQEL; listed as Homo sapiens) [compound 226]
19,+++ (= ≥50% = +++),228 (SLLELDGINLRL; listed as Homo sapiens) [compound 228]
20,+++ (= ≥50% = +++),230 (KLLNMIFSI; listed as Homo sapiens) [compound 230]
21,+++ (= ≥50% = +++),231 (LLDDIFIRL; listed as Homo sapiens) [compound 231]

row,"Peptide exchange (MHC class I binding score, peptide exchange yield)",Substance
1,+++ (= ≥50% = +++),237 (ALLEQTGDMSL; listed as Homo sapiens) [compound 237]
2,+++ (= ≥50% = +++),239 (VIIKGLEEITV; listed as Homo sapiens) [compound 239]
3,+++ (= ≥50% = +++),241 (KQFEGTVEI; listed as Homo sapiens) [compound 241]
4,+++ (= ≥50% = +++),244 (NVAEIVIHI; listed as Homo sapiens) [compound 244]
5,+++ (= ≥50% = +++),248 (VLMQDSRLYL; listed as Homo sapiens) [compound 248]
6,+++ (= ≥50% = +++),249 (YLYQILQGI; listed as Homo sapiens) [compound 249]
7,+++ (= ≥50% = +++),250 (LMQDSRLYL; listed as Homo sapiens) [compound 250]
8,+++ (= ≥50% = +++),251 (LLWGNLPEI; listed as Homo sapiens) [compound 251]
9,+++ (= ≥50% = +++),253 (KLLAVIHEL; listed as Homo sapiens) [compound 253]
10,+++ (= ≥50% = +++),256 (FLNDIFERI; listed as Homo sapiens) [compound 256]
11,+++ (= ≥50% = +++),261 (GLAALAVHL; listed as Homo sapiens) [compound 261]
12,+++ (= ≥50% = +++),262 (LLLEAVWHL; listed as Homo sapiens) [compound 262]
13,+++ (= ≥50% = +++),265 (FLLDKPQDLSI; listed as Homo sapiens) [compound 265]
14,+++ (= ≥50% = +++),270 (TLLTFFHEL; listed as Homo sapiens) [compound 270]
15,+++ (= ≥50% = +++),271 (VLIEYNFSI; listed as Homo sapiens) [compound 271]
16,+++ (= ≥50% = +++),274 (TLYNPERTITV; listed as Homo sapiens) [compound 274]
17,+++ (= ≥50% = +++),276 (RMPTVLQCV; listed as Homo sapiens) [compound 276]
18,+++ (= ≥50% = +++),277 (KLQEELNKV; listed as Homo sapiens) [compound 277]
19,+++ (= ≥50% = +++),278 (VLEDKVLSV; listed as Homo sapiens) [compound 278]
